Among the data in article PMC3769244 are localisation_or_trafficking values, retold here.

The data set can be described thus: immunofluorescence, data not shown. Particulars: glycan lost; control: untreated.

B1: CLN5: tunicamycin (protein)
parent chain: MAQEVDTAQGAEMRRGAGAARGRASWCWALALLWLAVVPGWSRVSGIPSRRHWPVPYKRFDFRPKPDPYCQAKYTFCPTGSPIPVMEGDDDIEVFRLQAPVWEFKYGDLLGHLKIMHDAIGFRSTLTGKNYTMEWYELFQLGNCTFPHLRPEMDAPFWCNQGAACFFEGIDDVHWKENGTLVQVATISGNMFNQMAKWVKQDNETGIYYETWNVKASPEKGAETWFDSYDCSKFVLRTFNKLAEFGAEFKNIETNYTRIFLYSGEPTYLGNETSVFGPTGNKTLGLAIKRFYYPFKPHLPTKEFLLSLLQIFDAVIVHKQFYLFYNFEYWFLPMKFPFIKITYEEIPLPIRNKTLSGL
On to B1, for which the localisation_or_trafficking entry is on record as “changes”.
